Test results as given in PMC8115157.

Legend:
Settings in all cases: remark: other sources report otherwise
[1] = target: T1, full-length human calcium-sensing receptor (CaSR) (human), P41180; assay: cryo-EM structure; single-particle cryo-EM of Ca^2+-free CaSR in DDM/CHS, 20 mM HEPES pH 7.5, 150 mM NaCl, 5 mM EGTA, with 10 mM L-Trp (CaSR^Trp); 4.4 Å
T1 chain: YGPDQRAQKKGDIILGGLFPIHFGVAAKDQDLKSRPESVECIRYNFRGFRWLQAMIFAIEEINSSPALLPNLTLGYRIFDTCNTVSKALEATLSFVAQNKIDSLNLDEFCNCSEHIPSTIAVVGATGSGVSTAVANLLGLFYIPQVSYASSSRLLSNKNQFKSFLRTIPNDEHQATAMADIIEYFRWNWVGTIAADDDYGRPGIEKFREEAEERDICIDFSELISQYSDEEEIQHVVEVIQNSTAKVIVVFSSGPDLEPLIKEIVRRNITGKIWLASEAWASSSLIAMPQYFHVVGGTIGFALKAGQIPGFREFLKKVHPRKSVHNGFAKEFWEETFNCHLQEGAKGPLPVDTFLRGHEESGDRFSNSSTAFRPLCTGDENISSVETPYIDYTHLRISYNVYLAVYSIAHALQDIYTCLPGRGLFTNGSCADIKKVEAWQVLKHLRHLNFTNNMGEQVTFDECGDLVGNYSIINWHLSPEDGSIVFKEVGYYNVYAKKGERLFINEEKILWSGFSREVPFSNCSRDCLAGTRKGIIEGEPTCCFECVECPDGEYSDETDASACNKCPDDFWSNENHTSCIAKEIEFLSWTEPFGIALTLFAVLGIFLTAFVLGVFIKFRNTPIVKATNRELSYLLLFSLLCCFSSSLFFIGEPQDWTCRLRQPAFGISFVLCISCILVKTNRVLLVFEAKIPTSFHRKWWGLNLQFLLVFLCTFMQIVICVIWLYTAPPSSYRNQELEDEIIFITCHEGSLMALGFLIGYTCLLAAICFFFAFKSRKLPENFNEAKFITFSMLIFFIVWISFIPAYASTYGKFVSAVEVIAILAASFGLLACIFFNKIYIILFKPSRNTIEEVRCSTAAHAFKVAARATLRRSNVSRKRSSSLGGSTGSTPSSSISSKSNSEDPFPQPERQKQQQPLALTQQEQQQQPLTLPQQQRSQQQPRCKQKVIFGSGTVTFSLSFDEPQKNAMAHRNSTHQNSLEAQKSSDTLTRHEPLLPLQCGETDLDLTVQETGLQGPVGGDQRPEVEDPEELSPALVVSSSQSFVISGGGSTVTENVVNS

[2] = target: T1, full-length human calcium-sensing …; assay: cryo-EM structure; single-particle cryo-EM of CaSR in DDM/CHS, 20 mM HEPES pH 7.5, 150 mM NaCl, with 10 mM L-Trp and 10 mM CaCl2 (active state, CaSR^Acc); 3.5 Å
[3] = target: T1, full-length human calcium-sensing …; assay: cryo-EM structure; single-particle cryo-EM of CaSR in DDM/CHS, 20 mM HEPES pH 7.5, 150 mM NaCl, 20 mM CaCl2 (three classes: closed-closed CaSR^Ca 3.8 Å, open-closed 5.6 Å, open-open 7.3 Å)
[4] = target: T1, full-length human calcium-sensing …; assay: cryo-EM structure; single-particle cryo-EM of CaSR in DDM/CHS, 20 mM HEPES pH 7.5, 150 mM NaCl, 5 mM EDTA (inactive state; three classes Icc 4.5 Å, Ioc 5.7 Å, Ioo 6.8 Å)

Measured: stoichiometry N

B1: full-length human calcium-sensing receptor (CaSR), P41180 20-1078 (receptor)
chain: T1 chain
modifications: here or on the partner: N-linked glycans (N-acetylglucosamine built) at N261, N287, N446, N468, N488 and N541; N-linked glycans (N-acetylglucosamine built) at N261, N287, N446, N468, N488 and N541
2: all assays above
